Assay [1] deals with HIV-1 AD8 gp41 (wild type), cut from Env gp160. The experiment in a line: radioimmunoprecipitation with HIVIG of metabolically labelled cell lysates and supernatants, SDS-PAGE, phosphorimager scanning.
Assay [2] has as its target HIV-1 AD8 gp41 K601D (HIV-1 AD8). Nature of the assay: gp120 shedding assay (radioimmunoprecipitation of cell lysates and culture supernatants); 293T cells transfected with Env vectors, 35S pulse 45 min, chase 5-6 h; cell lysates and clarified supernatants immunoprecipitated with IgG14 and protein G Sepharose; reducing SDS-PAGE, phosphorimager; gp120-shedding index against WT.

Assay [3] addresses HIV-1 AD8 gp41 K601N (HIV-1 AD8). The assay is described as above.
The target is the same in assay [4].
Assay [5] has as its target HIV-1 AD8 gp41 (wild type), cut from Env gp160 (HIV-1 AD8).

Chain of C34, HR2-based fusion inhibitor peptide (P03375 628-661): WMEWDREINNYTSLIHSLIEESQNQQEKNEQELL

Substance “HIV-1 AD8 gp120 (wild type), cut from Env gp160 N160Q” returned an other: gp120-shedding index in assay [1] of 0.7. Regarding HIV-1 AD8 gp120 T138N (natural protein), in assay [2], the gp120-gp41 association, fold improvement with respect to K601D worked out at 2 fold. “HIV-1 AD8 gp120 (wild type), cut from Env gp160 S188N” had an other: gp120-shedding index in assay [1] of 1.6. With “HIV-1 AD8 gp120 (wild type), cut from Env gp160 T138N”, the other: gp120-shedding index in assay [1] amounted to 0.5. Still for that read-out and setting: the value for “HIV-1 AD8 gp120 (wild type), cut from Env gp160 S143N” was 0.6; that for “HIV-1 AD8 gp120 (wild type), cut from Env gp160 S144N” was 0.6. With “HIV-1 AD8 gp120 (wild type), cut from Env gp160 (natural protein)”, the figures for the gp120 shedding, fold with respect to WT in assay [2] and in assay [3] were 6.8 fold and 4.4 fold, respectively.

As for “HIV-1 AD8 gp120 (wild type), cut from Env gp160 S158N”, the other: gp120-shedding index in assay [1] is 3.6. Take C34, HR2-based fusion inhibitor peptide: in assay [4], the IC50 of C34 for inhibition of cell-cell fusion by ΔN139INN/K601N Env (luciferase) turned out to be 100 nM. The substance also came in with an IC50 of C34 for inhibition of cell-cell fusion by WT Env (luciferase) in assay [5] of 100 nM.

These data come from article PMC3616969.
